# In the DeepSol protein solubility set:
# Assay: soluble on expression in E. coli; label from the status in PepcDB or PDB records
row,Sequence,soluble on expression in E. coli
1,MGSDKIHHHHHHMTLQQLRQVLTIAESNSMNEAAKKLFVSQPNLSATVREVEEELGITVFMRNNRGITVTAEGEEFLGYAKQVVEQYHLLENRYLNVESKKKFSVSMQHYSFAVKAFVQLAKEVGMDEYEFAVHETKTKEVIDNVKNLKSEIGVLYLSDFNEKVLRKLFKECDIEFKELFTCNTYVYLWKKHPLAGQKEITLDDLQEYPCLTFEQGVNNSFYYAEEMMSTYEYKRVIKADDRATMLNLMVGLNGFTLCSGIISEDLNGDDYAAIPLKESEKMHIGYIKHKGTKLSKLGEIYIDALKNYENKVL,not soluble
2,MSEKLKIVYRPLQELSPYAHNARTHSTEQVAQLVESIKQFGWTNPVLIDEKGEIIAGHGRVMAAEMLKMDSVPVIVLSGLTDEQKQR,soluble
3,MSLREAMSKQAMLDAIEAEREVLIGFLQEFVRAASPNPPGDTRAAAAVIQGFLSARGVPNELLGPQESMPNVVSECEGGRAGPRLVYNGHMDVFPVGDGHGWTRDPWSGDIEEGRLHGRGTCDMKTGTAASVIAYAYLYARRAQLAGSVALTAVSDEETGGRWGTRWLLENDTRWRGDCVLNGEPSSLDTIRFSEKGTLRLKFEVLAAGAHGAYVHRSESPTRIAAALIGRLAEVEAIEPSLPAALKAHLQREDVRRALDVAMGEGAADVVTRTTLNVGVLNGGLKINMIPDRCVFEVDIRLPVGTEPDVVLARLEGILAEFPQASMEVQQWHSTPPNVCAHDHPMVDFIADNAQAIVGRRPVAVPSIGSTDCRYWRRSGVPAYVYGPAPGRMAMSNESVDLDEFIAVAKVHAAAGWDYLNGAAEGHHHHHH,soluble
4,MVAFTVDQMRSLMDKVTNVRNMSVIAHVDHGKSTLTDSLVQRAGIISAAKAGEARFTDTRKDEQERGITIKSTAISLYSEMSDEDVKEIKQKTDGNSFLINLIDSPGHVDFSSEVTAALRVTDGALVVVDTIEGVCVQTETVLRQALGERIKPVVVINKVDRALLELQVSKEDLYQTFARTVESVNVIVSTYADEVLGDVQVYPARGTVAFGSGLHGWAFTIRQFATRYAKKFGVDKAKMMDRLWGDSFFNPKTKKWTNKDTDAEGKPLERAFNMFILDPIFRLFTAIMNFKKDEIPVLLEKLEIVLKGDEKDLEGKALLKVVMRKFLPAADALLEMIVLHLPSPVTAQAYRAEQLYEGPADDANCIAIKNCDPKADLMLYVSKMVPTSDKGRFYAFGRVFAGTVKSGQKVRIQGPNYVPGKKDDLFIKAIQRVVLMMGRFVEPIDDCPAGNIIGLVGIDQFLLKTGTLTTSETAHNMKVMKFSVSPVVQVAVEVKNANDLPKLVEGLKRLSKSDPCVLTYMSESGEHIVAGTGELHLEICLQDLEHDHAGVPLKISPPVVAYRETVESESSQTALSKSPNKHNRIYLKAEPIDEEVSLAIENGIINPRDDFKARARIMADDYGWDVTDARKIWCFGPDGNGPNLVIDQTKAVQYLHEIKDSVVAAFQWATKEGPIFGEEMRSVRVNILDVTLHADAIHRGGGQIIPTMRRATYAGFLLADPKIQEPVFLVEIQCPEQAVGGIYSVLNKKRGQVVSEEQRPGTPLFTVKAYLPVNESFGFTGELRQATGGQAFPQMVFDHWSTLGSDPLDPTSKAGEIVLAARKRHGMKEEVPGWQEYYDKL,soluble
5,MHFETVIGLEVHVELKTDSKMFSPSPAHFGAEPNSNTNVIDLAYPGVLPVVNKRAVDWAMRAAMALNMEIATESKFDRKNYFYPDNPKAYQISQFDQPIGENGYIDIEVDGETKRIGITRLHMEEDAGKSTHKGEYSLVDLNRQGTPLIEIVSEPDIRSPKEAYAYLEKLRSIIQYTGVSDVKMEEGSLRCDANISLRPYGQEKFGTKAELKNLNSFNYVRKGLEYEEKRQEEELLNGGEIGQETRRFDESTGKTILMRVKEGSDDYRYFPEPDIVPLYIDDAWKERVRQTIPELPDERKAKYVNELGLPAYDAHVLTLTKEMSDFFESTIEHGADVKLTSNWLMGGVNEYLNKNQVELLDTKLTPENLAGMIKLIEDGTMSSKIAKKVFPELAAKGGNAKQIMEDNGLVQISDEATLLKFVNEALDNNEQSVEDYKNGKGKAMGFLVGQIMKASKGQANPQLVNQLLKQELDKRLEHHHHHH,soluble
6,MAHHHHHHMMSRFETSPRDRRYNSAVRSSLFSFVLRRRRNLHDKKKPPLSANGPLTSVVHPRARNHLPDEVNLTTTLVRSCFCINIAPLPARSCASYSPRCSEQTVSRFFPHPFTFRASAIRGHNARLQLRRCTHHFLETPL,not soluble
7,MSLYFSGEPAQIAEIKRLASGAVTPLYRRATNEGIQLFLAGSAGLLQTTEDVRFEPCPGLTAAGRGVVSPENIAFTRWLTHLQDGVLLDEQNCLMLHELWLQSGTGRRRWEELPDDARESITALFTPKRGDWCDIWSNEDVSVWWNRLCDNVLPEKTMPFDLLTVLSTRLDVEVNGFNGGVLNGVPSAYHWYTEQYGVKWPCGYEVNISSQGDNFIQVDFDTPWCQPESDVIAVLSRRFSCMLEHWYAGQGCNFCGWQRYERGELVDVLWGELEWSSPTDDDELPEVTAPEWIVDKVAHYGGEGHHHHHH,not soluble
8,MQKQRMSGQNQKTDKRIAWPIIIMNFTGVYDYEAFARNNKFIWLDCRHLYGTDGYCDREGALALKGMIADYPAEGVHFIDSGNYHYLTKFWTDKLETPFSLIVFDHHPDMQPPLFDNILSCGSWVKDILDHNNNCKKVIIVGASDKLIQAVPKGYERQVRFYSETTLMHEEGWQNFSSGHINGPVYISIDKDVLKPASAATNWDQGSLSLWELEKLLAVILQKEQVVGIDICGECSTTLNLFEEKRETVMDSQANKELLRFIRSSSGLQ,not soluble
9,MGSDKIHHHHHHDEEPKSSLTLDTYYKTSADIIGNVNYLYRDGAPDKMGNMTGAYRGSSLSVMNMVTGYFVNEYEGQEVDCSYARQLTRQNFTQSCCNYLTNDTWKGCYKSINVANAVIKYVDGVEMDGQAQYKAEARFFRALNYFYLVKMFGDVPMITEPTEDATLVEYPARTAASEVYKTVIIPDLQFAVENLPDATFAGNSHRVTKYAADMLLADVYMRLGEYANAITPLKDVINSGKFALATNDNLAEGSAFNKLRTTDDLPEVIYAREYDAAISPNGNIPVHAFNLISPTFFANSSTGNKYSLWVNVYGVSERYLNVYGEKDLRAQMNQFFHRTYTHPVDGTTLDMKMLCNWYWYDETAILETGKGTKDWNFYRYAETLLSAAEAIAQSSGVNAEAAGYLAQVKARANMEGKDVSTIASELQRLGKQAFIEECWKERLREFPLEMKIWDDCVRTGKFPQISATNKGEVQFVDLIGATNGSGAKFKETDLYWPIPVNEIQRNPNLTQNEGYSAK,not soluble
10,MSLAELQMLLEEEIPSGKRALIESYQNLTRVADYCENNYIQATDKRKALEETKAYTTQSLASVAYQINALANNVLQLLDIQASQLRRMESSINHISQTVDIHKEKVARREIGILTTNKNTSRTHKIIAPANMERPVRYIRKPIDYTVLDDVGHGVKWLKAKHGNNQPARTGTLSRTNPPTQKEGHHHHHH,not soluble
11,MKPRGICFFDMDGTLLNSESKVLDTSLQALDKLRENNVIPVIATGRTLIEISHQMKITGIESAVMMNGQMAIFEGEKVYEDVIDADLLDRLTEEAKSQNVEVCYYNDKRIGATASTPVVKAHYDFLGEPMPKVRPNMYKEETINMALLLLETGDDYFPERFPELQFVRNTPFSNDVLRKGGSKAVGISKLLEVMGYQDVPTYAFGDGMNDLEMFGAVDYAIAMENAVPLLKEKADFVTKDNNSDGIMLGLKQFDLI,not soluble
12,MASEKPLAAVTCTAPVNIAVIKYWGKRDEELVLPINSSLSVTLHQDQLKTTTTAVISKDFTEDRIWLNGREEDVGQPRLQACLREIRCLARKRRNSRDGDPLPSSLSCKVHVASVNNFPTAAGLASSAAGYACLAYTLARVYGVESDLSEVARRGSGSACRSLYGGFVEWQMGEQADGKDSIARQVAPESHWPELRVLILVVSAEKKLTGSTVGMRASVETSPLLRFRAESVVPARMAEMARCIRERDFPSFAQLTMKDSNQFHATCLDTFPPISYLNAISWRIIHLVHRFNAHHGDTKVAYTFDAGPNAVIFTLDDTVAEFVAAVWHGFPPGSNGDTFLKGLQVRPAPLSAELQAALAMEPTPGGVKYIIVTQVGPGPQILDDPCAHLLGPDGLPKPAA,soluble
13,MSRLEIYSPEGLRLDGRRWNELRRFESSINTHPHAADGSSYMEQGNNKIITLVKGPKEPRLKSQMDTSKALLNVSVNITKFSKFERSKSSHKNERRVLEIQTSLVRMFEKNVMLNIYPRTVIDIEIHVLEQDGGIMGSLINGITLALIDAGISMFDYISGISVGLYDTTPLLDTNSLEENAMSTVTLGVVGKSEKLSLLLVEDKIPLDRLENVLAIGIAGAHRVRDLMDEELRKHAQKRVSNASAR,not soluble
14,MGSSHHHHHHSSGLVPRGSKTFIIGISGVTNSGKTTLAKNLQKHLPNCSVISQDDFFKPESEIETDKNGFLQYDVLEALNMEKMMSAISCWMESARHSVVSTDQESAEEIPILIIEGFLLFNYKPLDTIWNRSYFLTIPYEECKRRRSTRVYQPPDSPGYFDGHVWPMYLKYRQEMQDITWEVVYLDGTKSEEDLFLQVYEDLIQEL,soluble
15,MILQEAKIRAKELEIGAKSKYENETSKVIKEYESYLIKLEKQEAKNQQRLERETQQLEEERRRINHKQASLSGMIEELEKLKGDYRSKLTESLEILSRVAGLTQEEAKELALAKATEESRAQIAQIVRKYESEAKEEGRKRANYILAQATTRFAGEFAAERLINVVNLPNDELKGRIIGKEGRNIKTLEMLSGVDVIIDDTPGAIVLSSFNLYRRAIATRTIEALVEDGRIQPARIEEVYKKVEQEFEEKVLEEGEGIVLDMELGYVHPELKKLIGRLKYRASYGQNALGHSLEVANLAGVIAGELGGDVKLAKRAGLLHDIGKALTHDFGGSHVDLGAEVCSRYKEHPVVINAIFAHHGHEEAKSIESAAVCAADALSAARPGARREVLESFLKRVQEIEKIAMEKLGVRQAYAINAGREVRVIVNADLINDEESVLLAQEIAKEIETKVQYPGEIKVSVIREVRAVEFAK,not soluble
16,GAADHVKGDGKLTSKKISVADYNEIKVDGVIDFNYEQSDDPSTVEVTVDQNLHPYVNIEVKDRVLTIAFKGAKVDHFTKFIVKTNSKWLAAAKVSGNANFMVNSPLTGDETVIKANANSLVQLKETVTVGKLDLNVSGSANMVVNHLEADKIECDIDGSGSITIKKGNAKEGDYSIVSSGDIHAFGLAVPQLSCKVTGNGLAEVHATDNLKANVVGKGNIRYKGPTAVQQRIIGKGTVEEVKE,soluble
17,MGSDKIHHHHHHMGSAAQFRRWIRPSARLCNAPFIRATVQVHWRNLYLLSRRSAPRRFHADQEKDMTPRSIIAAGALFAAVATAPAAWASSTYMGALTEAEVLAAQKAWGEALVAISREHEAGGQAKAKALASTVLDKAYGYNLGPVLFKPTLTMAPQTFRTTKDGALAYFVGGDPNYPNDKGFALQGWRSVAIKNAAIQIHGDVATTTGNVMITDKNGNVTTVDKTWAFKKTDDGAIRIVVHHSSLPYTAK,not soluble
18,QKVTSLTACLVDQSLRLDCRHENTSSSPIQYEFSLTRETKKHVLFGTVGVPEHTYRSRTNFTSKYNMKVLYLSAFTSKDEGTYTCALHHSGHSPPISSQNVTVLRDKLVKCEGISLLAQNTSWLLLLLLSLSLLQATDFMSL,not soluble
19,HFRRSLRHIFRRRSAGELPAAHTAAAPGTPGEAAETPARPGLAKKFLPWSLAREPPPEALKEAVLRYSLADEASMDSGARWQRGRLALRRAPGPDGPDRVLELFDPPKSSRPKLQAACSSIQEVRRCTRLEMPDNLYTFVLKVKDRTDIIFEVGDEQQLNSWMAELSECTGRGLESTEAEMHIPSALEPSTSSSPRGSTDSLNQGASPGGLLDPACQKTDHFLSCYPWFHGPISRVKAAQLVQLQGPDAHGVFLVRQSETRRGEYVLTFNFQGIAKHLRLSLTERGQCRVQHLHFPSVVDMLHHFQRSPIPLECGAACDVRLSSYVVVVSQPPGSCNTVLFPFSLPHWDSESLPHWGSELGLPHLSSSGCPRGLSPEGLPGRSSPPEQIFHLVPSPEELANSLQHLEHEPVNRARDSDYEMDSSSRSHLRAIDNQYTPL,soluble
